This note sets out measurements from paper doi:10.1101/2021.02.02.429361 (bioRxiv, 2021).

Series [1] has as its target T1, ABI5 (His-ABI5) (Arabidopsis thaliana) (UniProt Q9SJN0).
T1 sequence: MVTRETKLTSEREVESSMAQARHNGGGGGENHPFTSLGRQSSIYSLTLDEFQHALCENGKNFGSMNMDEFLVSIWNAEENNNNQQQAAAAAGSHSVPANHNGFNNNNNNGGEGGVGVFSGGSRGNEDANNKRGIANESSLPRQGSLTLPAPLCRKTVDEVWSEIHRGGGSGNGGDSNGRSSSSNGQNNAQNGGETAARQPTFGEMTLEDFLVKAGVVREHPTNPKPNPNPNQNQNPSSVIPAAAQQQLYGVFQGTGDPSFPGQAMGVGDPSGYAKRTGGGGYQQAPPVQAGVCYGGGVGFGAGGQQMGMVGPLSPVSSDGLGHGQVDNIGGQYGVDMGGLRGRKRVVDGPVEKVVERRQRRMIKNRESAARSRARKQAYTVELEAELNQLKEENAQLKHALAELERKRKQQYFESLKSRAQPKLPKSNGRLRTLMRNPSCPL
The experiment in a line: EMSA. On the technique in general: Mobility shift assays separate free from complexed probe on a gel.

The target in series [2] is T2, His-AtABI5 (Arabidopsis thaliana, UniProt Q9SJN0 1-442).
T2 sequence (looked up): T1 sequence
The experiment in a line: pull-down.

Turning to “AGTGTTATATAATTTTACGTAACGTAAAACAATACAAAATTTTAATTCCTGAACGAATAAAACGAGTATATTAATTAATTTATTGATCGTATTAAAACGAATATGATCCAATTAAGATTACAATTACTAAAATCCCCACACTATTATTGTCATTATTTAACTATGGCAGATAGATAGATACAGAACCGTAAAGGACGTTAGGAAGAGGAAGAACGTTGACGAAGTCAAC (double strand) [AtMPK3 promoter fragment (-402 to -256)]”, the binding result in series [1] was “binds”.

B1: GST-AtMPK3 (enzyme, Arabidopsis thaliana, UniProt Q39023 1-370, looked up)
chain: MNTGGGQYTDFPAVETHGGQFISYDIFGSLFEITSKYRPPIIPIGRGAYGIVCSVLDTETNELVAMKKIANAFDNHMDAKRTLREIKLLRHLDHENIIAIRDVVPPPLRRQFSDVYISTELMDTDLHQIIRSNQSLSEEHCQYFLYQLLRGLKYIHSANIIHRDLKPSNLLLNANCDLKICDFGLARPTSENDFMTEYVVTRWYRAPELLLNSSDYTAAIDVWSVGCIFMELMNRKPLFPGKDHVHQMRLLTELLGTPTESDLGFTHNEDAKRYIRQLPNFPRQPLAKLFSHVNPMAIDLVDRMLTFDPNRRITVEQALNHQYLAKLHDPNDEPICQKPFSFEFEQQPLDEEQIKEMIYQEAIALNPTYG
On to B1, for which the binding result in series [2] is recorded as “binds”.
